Results taken from article PMC10520678.

Legend:
TRIM21 [1] = molecular target: TRIM21 (UniProt P19474); assay: anti-Flag co-IP, TRIM21 blot; settings: reference: wild type, EGF-treated; sites Y288
TRIM21 [2] = molecular target: TRIM21 (UniProt P19474); assay: co-IP, blot; settings: reference: wild type CD47, c-Src CA expressed; sites Y288

| binding against the reference (TRIM21 [1]) | binding against the reference (TRIM21 [2]) | Substance |
| --- | --- | --- |
| stronger | – | CD47 (from UniProt Q08722) Y288F, EGF-treated |
| – | stronger | CD47 (from UniProt Q08722) Y288F, c-Src CA expressed |
